B1: phosphoribulokinase from Arabidopsis thaliana (enzyme, UniProt P25697 47-395, looked up)
chain: AQETIVIGLAADSGCGKSTFMRRLTSVFGGAAKPPKGGNPDSNTLISDTTTVICLDDYHSLDRYGRKEQKVTALDPRANDFDLMYEQVKALKNGIAVEKPIYNHVTGLLDPPELIQPPKILVIEGLHPMFDERVRDLLDFSIYLDISNEVKFAWKIQRDMAERGHSLESIKASIEARKPDFDAFIDPQKQYADAVIEVLPTTLIPDDNEGKVLRVRLIMKEGVKYFSPVYLFDEGSTISWIPCGRKLTCSYPGIKFNYEPDSYFDHEVSVLEMDGQFDRLDELIYVESHLSNLSTKFYGEVTQQMLKHADFPGSNNGTGLFQTIVGLKIRDLYEQLIANKATARAEAKA
B2: phosphoribulokinase from Chlamydomonas reinhardtii (enzyme, UniProt P19824 32-375, looked up)
chain: DKDKTVVIGLAADSGCGKSTFMRRMTSIFGGVPKPPAGGNPDSNTLISDMTTVICLDDYHCLDRNGRKVKGVTALAPEAQNFDLMYNQVKALKEGKSVDKPIYNHVSGLIDAPEKIESPPILVIEGLHPFYDKRVAELLDFKIYLDISDDIKFAWKIQRDMAERGHSLESIKSSIAARKPDFDAYIDPQKKDADMIIQVLPTQLVPDDKGQYLRVRLIMKEGSKMFDPVYLFDEGSTISWIPCGRKLTCSFPGIKMFYGPDTWYGQEVSVLEMDGQFDKLEELIYVESHLSNTSAKFYGEITQQMLKNSGFPGSNNGTGLFQTIVGLKVREVYERIVKKDVVPV

Target: the molecule itself
Experiment: crystal structure

Protein	stoichiometry N
B1	2
B2	2

From publication doi:10.1101/422709 (bioRxiv, 2019)
